Tests used:
[1] = target: rat liver AMPK α1 isoform (affinity purified α1 AMPK, native enzyme) (rat) (UniProt P54645); assay: peptide substrate affinity chromatography of rat liver preparations, single pass
[2] = target: rat liver AMPK α1 isoform (affinity purified α1 AMPK, native enzyme) (rat) (UniProt P54645); assay: peptide substrate affinity chromatography of rat liver preparations, with recycling

Chain of UniProt P54645 (P54645 whole entry, form in doubt, chain 1 of 2, canonical isoform): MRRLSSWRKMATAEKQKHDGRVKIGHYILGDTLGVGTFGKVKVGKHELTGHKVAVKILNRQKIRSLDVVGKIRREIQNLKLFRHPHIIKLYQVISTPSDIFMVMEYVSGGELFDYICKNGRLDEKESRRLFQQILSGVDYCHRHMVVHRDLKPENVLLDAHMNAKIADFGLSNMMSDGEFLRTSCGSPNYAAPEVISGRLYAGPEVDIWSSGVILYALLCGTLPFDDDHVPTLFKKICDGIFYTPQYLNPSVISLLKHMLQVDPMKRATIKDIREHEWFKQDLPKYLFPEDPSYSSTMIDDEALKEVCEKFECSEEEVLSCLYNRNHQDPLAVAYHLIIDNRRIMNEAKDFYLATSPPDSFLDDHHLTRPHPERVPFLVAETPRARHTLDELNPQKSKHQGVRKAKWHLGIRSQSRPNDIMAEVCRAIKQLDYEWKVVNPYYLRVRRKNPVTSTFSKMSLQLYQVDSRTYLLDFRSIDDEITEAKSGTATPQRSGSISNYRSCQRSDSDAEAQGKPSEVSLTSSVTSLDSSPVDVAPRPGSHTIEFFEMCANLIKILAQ
Chain of UniProt P54645 (P80385 whole entry, form in doubt, chain 2 of 2, further chain, canonical isoform): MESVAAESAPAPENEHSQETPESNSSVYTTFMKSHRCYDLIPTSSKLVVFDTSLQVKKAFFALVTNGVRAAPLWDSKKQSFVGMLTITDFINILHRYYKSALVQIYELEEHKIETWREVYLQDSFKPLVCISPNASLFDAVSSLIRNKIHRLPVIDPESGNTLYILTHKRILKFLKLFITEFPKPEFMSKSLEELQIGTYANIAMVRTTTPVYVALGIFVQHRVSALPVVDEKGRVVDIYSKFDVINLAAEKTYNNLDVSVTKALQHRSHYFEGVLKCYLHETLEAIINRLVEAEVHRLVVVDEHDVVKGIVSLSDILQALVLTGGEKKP

- proportion of SAMS peptide phosphotransferase activity bound to the peptide affinity column with a single pass [1]: 90 to 92%
- proportion of SAMS peptide phosphotransferase activity bound to the column with recycling [2]: 94%
Substance: ADR1 (222-234)P229 peptide
